In experiment [1] the target is T1, IL-8 (UniProt P10145 28-99, limits assumed).
T1 construct: also called Interleukin-8; immobilized IL-8
T1 sequence (looked up): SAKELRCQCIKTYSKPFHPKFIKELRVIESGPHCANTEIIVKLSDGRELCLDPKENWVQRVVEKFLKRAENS
Nature of the experiment: SPR, immobilized IL-8, IgG, 37 C. The procedure:
(§1) Here, scFv and corresponding humanized IgG₁ were prepared using the sequences as indicated, and KD was determined using SPR with immobilized IL-8 as […] on the chip surface. All values are expressed as nanoM values at temperatures as indicated.

For experiment [2], the target named is T1, IL-8. Nature of the experiment: SPR, immobilized IL-8, IgG1, 25 C. The protocol: as §1
Background: SPR reads the build-up and loss of mass on a sensor chip optically.

Experiment [3] concerns the target T1, IL-8. Put plainly: SPR, IgG1, 25 C, pH 7.4, preliminary KD. The text has this:
(§2) The inventors contemplate that the binding affinities of the scFv, recombinant antibody or fragment thereof, to IL-8 may be different due to the structural differences even if the scFv, recombinant antibody or fragment thereof, are generated using the same amino acid sequences of VH segment and/or VL segments. For example, Table 2 provides different affinities (measured in KD value) of scFv and recombinant antibody (IgG1) of several clones. Clone 49-31 is a scFv or a recombinant antibody (IgG1) generated using amino acid sequences encoding VH segment (SEQ ID No. 1) and VL segment (SEQ ID No. 16), Clone 43-2 is a scFv or a recombinant antibody (IgG1) generated using amino acid sequences encoding VH segment (SEQ ID No. 8) and VL segment (SEQ ID No. 23), and Clone 43-12 is a scFv or a recombinant antibody (IgG1) generated using amino acid sequences encoding VH segment (SEQ ID No.10) and VL segment (SEQ ID No. 25). Preliminary KD values are determined by surface plasmon resonance measurement, and highest and lowest values are shown to estimate the range of the affinities to IL-8.

Experiment [4] addresses T1, IL-8. Put plainly: SPR, IgG1, 37 C, pH 7.4, preliminary KD, lowest and highest value.
From the text: as §2

Experiment [5] has as its target T1, IL-8. Nature of the experiment: SPR, immobilized IL-8, scFv, 25 C. The protocol:
as §1

Experiment [6] has as its target T1, IL-8. Nature of the experiment: SPR, IgG1, 37 C, pH 7.4, preliminary KD; IgG1, 37 C, pH 7.4.
From the text: as §2

Experiment [7] addresses T1, IL-8. Nature of the experiment: SPR, IgG1, 25 C, pH 6.0, preliminary KD, lowest and highest value.
From the text: as §2

Experiment [8] has as its target T1, IL-8. Put plainly: SPR, IgG1, 25 C, pH 7.4, preliminary KD, lowest and highest value; lowest value of the range; IgG1, 25 C, pH 7.4.
From the text: as §2

Experiment [9] addresses T1, IL-8. Put plainly: SPR, scFv, preliminary KD.
From the text: as §2

Experiment [10] deals with T1, IL-8. Nature of the experiment: SPR, lower panel; no pH label is printed on this sheet (the lower panel of Fig.4A is pH6.0; the text names pH 7.4 and pH 6.0). The protocol: (§3) In yet another set of experiments, the inventors used affinity maturation (here: random mutagenesis of CDR regions in VH and VL chains and mRNA display selection) of one previously identified IL-8 binder (here: 43-12, sequence in Table 1), and SPR analysis was performed on selected mutant forms using two different pH conditions, pH 7.4 and pH 6.0.

The target in experiment [11] is T1, IL-8. Nature of the experiment: SPR, upper panel; no pH label is printed on this sheet (the upper panel of Fig.4A is pH7.4; the text names pH 7.4 and pH 6.0). The protocol: as §3
The target in experiment [12] is T1, IL-8. Put plainly: SPR, IgG1, 37 C, pH 7.4, preliminary KD.
From the text: as §2

The target of experiment [13] is T1, IL-8. Nature of the experiment: SPR, IgG1, 25 C, pH 7.4, preliminary KD, lowest and highest value.
From the text: as §2

Where a chain is given by its changes, count along the chain named. “And” between values parts separate entries of the source, which are not always exact repeats. Equal values may be shown once.

B1: recombinant antibody (IgG1) 43-2 (antibody, V domains shown)
VH: EVQLVESGGGLVQPGGSLRLSCAASGFTFSSYAMHWVRQAPGKGLEWVSAISGSGGKTYYADSVKGRFTISRDNSKNTLYLQMNSLRAEDTAVYYCARDREAPFYTVYVTGFDVWGQGTLVTVSS
VL: DIQMTQSPSSLSASVGDRVTITCQASQDISNYLNWYQQKPGKAPKLLIYDASNLETGVPSRFSGSGSGTDFTFTISSLQPEDIATYYCQQDADTPLTFGQGTKVEIK
notes: IgG1 ('corresponding humanized IgG1'); also called 43-2 IgG1; Clone 43-2
Turning to B1, the Kd – broadly, the concentration at which binding is half-saturated – in experiment [1] was 0.72 to 0.89 nM; in [2], 0.79 nM; in experiment [3], 0.79 nM; in experiment [4], 0.72 nM and 0.89 nM.

B2: scFv 49-34 (scFv, V domains shown)
VH: EVQLVESGGGLVQPGGSLRLSCAASGFTLGSYAMHWVRQAPGKGLEWVSAISGSGGSTYYADSVKGRFTISRDNSKNTLYLQMNSLRAEDTAVYYCARDRDTVSIEVGFDVWGQGTLVTVSS
VL: B1 VL with A92S, D93A, T94F
notes: also called Clone 49-34
Turning to B2, the Kd in [5] lay in the range of 0.44 to 0.62 nM.

B3: recombinant antibody (IgG1) 49-31 (antibody, V domains shown)
VH: EVQLVESGGGLVQPGGSLRLSCAASGFTFSSYYMHWVRQAPGKGLEWVSAISGGGSSTYYADSVKGRFTISRDNSKNTLYLQMNSLRAEDTAVYYCARDLRIFEGRDAGFDVWGQGTLVTVS
VL: B1 VL with A92D, T94V, L96W
notes: IgG1 ('corresponding humanized IgG1'); also called 49-31 IgG1; Clone 49-31
Regarding B3, the dissociation constant Kd is 0.12 nM in [1]; 0.099 to 0.25 nM in [2]; 0.117 nM in experiment [6]; 0.21 to 0.22 nM in [7]; 0.009 to 0.25 nM in experiment [8].

B4: scFv 49-22 (scFv, V domains shown)
VH: EVQLVESGGGLVQPGGSLRLSCAASGFTFTSYAMHWVRQAPGKGLEWVSAISGSGGSTYYADSVKGRFTISRDNSKNTLYLQMNSLRAEDTAVYYCARDLDMFVPFWPAFDVWGQGTLVTVSS
VL: B1 VL with D91A, A92S
notes: also called Clone 49-22
In the case of B4, the Kd in experiment [5] fell in the range of 0.11 to 0.114 nM.

B5: scFv 43-2 (scFv, V domains shown)
VH: B1 VH
VL: B1 VL
notes: also called Clone 43-2
As for B5, the Kd in experiment [9] and in experiment [5] was 1.41 nM throughout.

B6: scFv 43-12b (scFv, V domains shown)
VH: EVQLVESGGGLVQPGGSLRLSCAASGFTFSSYLMHWVRQAPGKGLEWVSAISGSGGITYYADSVKGRFTISRDNSKNTLYLQMNSLRAEDTAVYYCARDREGWFWHSYGFDVWGQGTLVTVSS
VL: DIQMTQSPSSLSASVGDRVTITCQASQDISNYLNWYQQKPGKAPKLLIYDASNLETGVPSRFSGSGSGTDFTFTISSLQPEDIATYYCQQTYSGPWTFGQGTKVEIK
notes: Derived from 43-12 by random mutagenesis of the CDRs and mRNA display
As for B6, in experiment [10], the Kd came to 2.3 nM; the koff (commonly the first-order rate constant of dissociation) was 0.00076 s⁻¹; the kon – broadly, a measure of how fast the partners come together – amounted to 330000 M⁻¹ s⁻¹. Moreover, in experiment [11], binding was put at a Kd of 2 nM, the koff stood at 0.0002 s⁻¹ and the kon amounted to 100000 M⁻¹ s⁻¹.

B7: recombinant antibody (IgG1) 43-12 (antibody, V domains shown)
VH: B6 VH with I57S
VL: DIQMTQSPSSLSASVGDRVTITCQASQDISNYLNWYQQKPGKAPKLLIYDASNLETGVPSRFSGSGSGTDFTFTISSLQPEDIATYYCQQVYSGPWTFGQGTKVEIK
notes: IgG1 ('corresponding humanized IgG1'); also called 43-12 IgG1; Clone 43-12
Consider B7, for which the Kd was 0.31 nM in [1]; 0.43 to 0.78 nM in experiment [2]; 0.31 nM in [12]; 3.46 to 6.7 nM in experiment [7]; 0.43 to 0.78 nM in experiment [13].

B8: scFv 49-18 (scFv, V domains shown)
VH: EVQLVESGGGLVQPGGSLRLSCAASGFTFSSYAMNWVRQAPGKGLEWVSAISWSGGNTYYADSVKGRFTISRDNSKNTLYLQMNSLRAEDTAVYYCARDLYAGYWGFDVWGQGTLVTVSS
VL: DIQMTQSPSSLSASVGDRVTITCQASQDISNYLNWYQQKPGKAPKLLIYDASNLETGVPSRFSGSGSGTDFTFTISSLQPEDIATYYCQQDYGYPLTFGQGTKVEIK
notes: also called Clone 49-18
On to B8, for which the Kd in experiment [5] fell in the range of 0.41 to 0.89 nM.

B9: scFv 49-3 (scFv, V domains shown)
VH: EVQLVESGGGLVQPGGSLRLSCAASGFTFSSYAMTWVRQAPGKGLEWVSVISGSGGSTRYADSVKGRFTISRDNSKNTLYLQMNSLRAEDTAVYYCARDRKFPYVQFFRNGFDVWGQGTLVTVSS
VL: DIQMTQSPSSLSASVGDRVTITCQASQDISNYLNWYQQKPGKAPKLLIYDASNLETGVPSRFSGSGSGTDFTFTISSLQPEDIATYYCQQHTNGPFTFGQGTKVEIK
notes: also called Clone 49-3
Regarding B9, the Kd in experiment [5] was 1.26 nM.

B10: IgG1 49-3 (antibody, V domains shown)
VH: B9 VH
VL: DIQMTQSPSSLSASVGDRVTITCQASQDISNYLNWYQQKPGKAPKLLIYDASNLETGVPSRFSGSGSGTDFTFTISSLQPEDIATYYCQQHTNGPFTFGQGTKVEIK
notes: also called 49-3 IgG1; Clone 49-3
With B10, the results for the Kd in experiment [1] and in [2] were 9.19 nM and 2.14 nM, respectively.

B11: scFv 49-32 (scFv, V domains shown)
VH: EVQLVESGGGLVQPGGSLRLSCAASGFTFSSYAMHWVRQAPGKGLEWVSAIYGNGGSTYYADSVKGRFTISRDNSKNTLYLQMNSLRAEDTAVYYCARDLYTIEPREAFDVWGQGTLVTVSS
VL: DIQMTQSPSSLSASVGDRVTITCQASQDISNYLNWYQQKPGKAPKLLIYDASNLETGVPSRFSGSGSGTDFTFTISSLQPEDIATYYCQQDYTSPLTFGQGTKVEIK
notes: also called Clone 49-32
With B11, the Kd in experiment [5] lay within 0.21 to 0.24 nM.

B12: IgG1 49-32 (antibody, V domains shown)
VH: B11 VH
VL: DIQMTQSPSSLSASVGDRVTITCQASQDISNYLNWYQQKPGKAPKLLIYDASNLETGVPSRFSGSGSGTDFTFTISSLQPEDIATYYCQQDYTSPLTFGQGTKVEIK
notes: also called 49-32 IgG1; Clone 49-32
Take B12: the Kd fell in the range of 0.33 to 0.36 nM in experiment [1] and 0.77 to 0.87 nM in experiment [2].

B13: scFv 49-7 (scFv, V domains shown)
VH: EVQLVESGGGLVQPGGSLRLSCAASGFTFSSYAMHWVRQAPGKGLEWVSAISNSGASTYYADSVKGRFTISRDNSKNTLYLQMNSLRAENTAVYYCARDLMRWWIDGFDVWGQGTLVTVSS
VL: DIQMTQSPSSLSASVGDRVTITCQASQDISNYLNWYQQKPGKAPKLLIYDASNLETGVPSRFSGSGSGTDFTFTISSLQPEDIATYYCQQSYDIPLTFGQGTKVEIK
notes: also called Clone 49-7
The molecule B13 registered a Kd in experiment [5] of 0.087 to 0.17 nM.

The values are drawn from patent publication US20200377587A1 (NANTBIO, published 2020).
